Substitutions are numbered along the chain they refer to. Names and notes keep the numbering of the source.
B1: dipeptide BP K394C mutant conjugated to NBD (protein, Escherichia coli, not shown: small tags and cut ends)
chain: MKTLVYCSEGSPEGFNPQLFTSGTTYDASSVPLYNRLVEFKIGTTEVIPGLAEKWEVSEDGKTYTFHLRKGVKWHDNKEFKPTRELNADDVVFSFDRQKNAQNPYHKVSGGSYEYFEGMGLPELISEVKKVDDNTVQFVLTRPEAPFLADLAMDFASILSKEYADAMMKAGTPEKLDLNPIGTGPFQLQQYQKDSRIRYKAFDGYWGTKPQIDTLVFSITPDASVRYAKLQKNECQVMPYPNPADIARMKQDKSINLMEMPGLNVGYLSYNVQKKPLDDVKVRQALTYAVNKDAIIKAVYQGAGVSAKNLIPPTMWGYNDDVQDYTYDPEKAKALLKEAGLEKGFSIDLWAMPVQRPYNPNARRMAEMIQADWAKVGVQAKIVTYEWGEYLKRACDGEHQTVMMGWTGDNGDPDNFFATLFSCAASEQGSNYSKWCYKPFEDLIQPARATDDHNKRVELYKQAQVVMHDQAPALIIAHSTVFEPVRKEVKGYVVDPLGKHHFENVSIE
modifications: NBD fluorophore (N,N'-dimethyl-N-(iodoacetyl)-N'-(7-nitrobenz-2-oxa-1,3-diazol-4-yl)ethylenediamide) conjugated to the thiol of Cys 394
B2: dipeptide BP K394C-Fluorescein conjugate (receptor, E. coli, not shown: small tags and cut ends)
chain: B1 chain
modifications: fluorescein (5-iodoacetamidofluorescein) conjugated to the thiol of Cys 394
B3: dipeptide BP K394C-JPW4039 conjugate (receptor, E. coli, not shown: small tags and cut ends)
chain: B1 chain
modifications: JPW4039 fluorophore conjugated to the thiol of Cys 394
B4: dipeptide BP W315C-Acrylodan conjugate (receptor, E. coli, not shown: small tags and cut ends)
chain: B1 chain with W316C, C395K
modifications: acrylodan fluorophore conjugated to the thiol of Cys 315
B5: dipeptide BP D450C-JPW4042 conjugate (receptor, E. coli, not shown: small tags and cut ends)
chain: B1 chain with C395K, D451C
modifications: JPW4042 fluorophore conjugated to the thiol of Cys 450
B6: dipeptide BP K394C-JPW4042 conjugate (receptor, E. coli, not shown: small tags and cut ends)
chain: B1 chain
modifications: JPW4042 fluorophore conjugated to the thiol of Cys 394
B7: dipeptide BP D450C-JPW4045 conjugate (receptor, E. coli, not shown: small tags and cut ends)
chain: B1 chain with C395K, D451C
modifications: JPW4045 fluorophore conjugated to the thiol of Cys 450
B8: dipeptide BP W315C-JPW4045 conjugate (receptor, E. coli, not shown: small tags and cut ends)
chain: B1 chain with W316C, C395K
modifications: JPW4045 fluorophore conjugated to the thiol of Cys 315
B9: dipeptide BP T44C conjugated to NBD (receptor, E. coli, not shown: small tags and cut ends)
chain: B1 chain with T45C, C395K
modifications: NBD (N,N'-dimethyl-N-(iodoacetyl)-N'-(7-nitrobenz-2-oxa-1,3-diazol-4-yl)ethylenediamide) conjugated to the thiol of Cys 44
B10: dipeptide BP K394C-Acrylodan conjugate (receptor, E. coli, not shown: small tags and cut ends)
chain: B1 chain
modifications: acrylodan fluorophore conjugated to the thiol of Cys 394
B11: dipeptide BP K394C conjugated to fluorescein (receptor, E. coli, not shown: small tags and cut ends)
chain: B1 chain
modifications: fluorescein (5-iodoacetamidofluorescein) conjugated to the thiol of Cys 394
B12: dipeptide BP W315C-NBD conjugate (receptor, E. coli, not shown: small tags and cut ends)
chain: B1 chain with W316C, C395K
modifications: NBD fluorophore conjugated to the thiol of Cys 315
B13: dipeptide BP D450C-Acrylodan conjugate (receptor, E. coli, not shown: small tags and cut ends)
chain: B1 chain with C395K, D451C
modifications: acrylodan fluorophore conjugated to the thiol of Cys 450

Experiments:
Gly-Leu dipeptide [1] = assay: fluorimetric titration of the fluorophore conjugate with ligand, fit to a binding isotherm
Gly-Leu dipeptide [2] = assay: fluorimetric titration of the fluorophore conjugate with ligand, fit to binding isotherm
Gly-Leu dipeptide [3] = assay: fluorimetric titration of the fluorophore conjugate with ligand; low end of the range over 21 conjugates
Gly-Leu dipeptide [4] = assay: fluorimetric titration of the fluorophore conjugate with ligand; high end of the range over 21 conjugates

Binder | Kd (Gly-Leu dipeptide [2]) [µM] | further results
B1 |  | Kd (Gly-Leu dipeptide [1]): 0.006 µM
B2 | 93 | 
B3 | 30 | 
B4 | 0.13 | 
B5 | 1.5 | 
B6 | 78 | 
B7 | 2 | 
B8 | 3.2 | 
B9 |  | Kd (Gly-Leu dipeptide [3]): 0.006 µM
B10 | 23 | 
B11 |  | Kd (Gly-Leu dipeptide [4]): 93 µM
B12 | 0.06 | 
B13 | 11 | 

Source: US9625458
